Experimental data reported in US20020164721A1, “Design of a polyepitopic construct for the induction of HLA-A2.1 restricted HIV 1 specific CTL responses using HHD mice” (priority 1999, published 2002).

Legend:
[1] = biological target: T1, HLA-A2.1 molecules on T2 (TAP-, HLA-A2.1+) cells (human); experiment: T2 cells, HLA-A2.1 stabilisation, BB7.2 immunofluorescence FACS
[2] = biological target: T1, HLA-A2.1 molecules on T2 (TAP-, …); experiment: T2 cells, decay of surface peptide-HLA-A2.1 complexes, FACS
[3] = biological target: T1, HLA-A2.1 molecules on T2 (TAP-, …); experiment: T2 cells, HLA-A2.1 stabilisation, indirect immunofluorescence FACS

Binder | relative affinity (RA) (ratio to reference peptide HIV 1 rt.476) [1] | DC50 (half-life of peptide-HLA-A2.1 complexes) [2] [h] | relative affinity (RA) (ratio to reference peptide I9V) [3]
LLDGTATLRL (modifications not checked) [gp100.457] | 1.65 | – | –
RMPEAAPPV (modifications not checked) [p53.65] | 0.91 | – | –
IISAVVGIL (modifications not checked) [Her2/neu.654] | – | 4 | –
KLTPLCVSL (modifications not checked) [K9L] | – | > 6 | 1.35
MLLAVLYCL (modifications not checked) [Tyrosinase.1] | > 60 | – | –
YMDGTMSQV (modifications not checked) [Tyrosinase.368-D] | 2.27 | > 6 | –
ILTVILGVL (modifications not checked) [Melan-A/MART-1.32] | 21.1 | – | –
YMNGTMSQV (modifications not checked) [Tyrosinase.368-N] | 2.2 | > 8 | –
LLDTGADDTV (modifications not checked) [L10V] | – | < 2 | 10
FLWGPRALV (modifications not checked) [MAGE-3.271] | – | 6 | –
VLPDVFIRC (modifications not checked) [NA17-A.nt38] | 1.52 | > 8 | –
VLYRYGSFSV (modifications not checked) [gp100.476] | 10 | – | –
